Assay results as given in publication PMC6555819, “Comprehensive study of nuclear receptor DNA binding provides a revised framework for understanding receptor specificity”.

B1: NRC3_wobSeed45_DR1_A9T_o1 (dsDNA)
DNA 1: GCTGTCAATGTTCAAAGGTAACGTAAGTATCCACACGCGATTGACAGCGTAGAATGAAGG
DNA 2: CCTTCATTCTACGCTGTCAATCGCGTGTGGATACTTACGTTACCTTTGAACATTGACAGC
B2: NRC3_random_hg19_177_o1 (dsDNA)
DNA 1: GCATCTTTAGCAAGATACTTCATAGGTACTACTGTGGCGATTGACAGCGTAGAATGAAGG
DNA 2: CCTTCATTCTACGCTGTCAATCGCCACAGTAGTACCTATGAAGTATCTTGCTAAAGATGC
B3: NRC3_wobSeed143_DR5_G12T_o1 (dsDNA)
DNA 1: GCAGAACGAGGTCACGCTGAGTTGATAGCAGAGTAGGCGATTGACAGCGTAGAATGAAGG
DNA 2: CCTTCATTCTACGCTGTCAATCGCCTACTCTGCTATCAACTCAGCGTGACCTCGTTCTGC
B4: NRC3_wobSeed75_DR3_A12T_o1 (dsDNA)
DNA 1: GCTCTCGGAGGTCACGAAGGTCAGAGCTTTCCAGAGGCGATTGACAGCGTAGAATGAAGG
DNA 2: CCTTCATTCTACGCTGTCAATCGCCTCTGGAAAGCTCTGACCTTCGTGACCTCCGAGAGC
B5: NRC3_wobSeed34_DR1_G6A_o1 (dsDNA)
DNA 1: GCATCAAAAGGTCGAAGGTGAGTATACCCACCCGAAGCGATTGACAGCGTAGAATGAAGG
DNA 2: CCTTCATTCTACGCTGTCAATCGCTTCGGGTGGGTATACTCACCTTCGACCTTTTGATGC
B6: NRC3_random_hg19_388_o1 (dsDNA)
DNA 1: GCACAAGTCTACAAACCCTGGGAGAATGAGAAGTGTGCGATTGACAGCGTAGAATGAAGG
DNA 2: CCTTCATTCTACGCTGTCAATCGCACACTTCTCATTCTCCCAGGGTTTGTAGACTTGTGC
B7: NRC3_wobSeed119_DR4_G12T_o1 (dsDNA)
DNA 1: GCGGAACGAGGTCATTCGAGTTGATAGCATGGCGATGCGATTGACAGCGTAGAATGAAGG
DNA 2: CCTTCATTCTACGCTGTCAATCGCATCGCCATGCTATCAACTCGAATGACCTCGTTCCGC
B8: NRC3_random_hg19_444_o1 (dsDNA)
DNA 1: GCGGGTGTGGTCGTGGGCACCTGCAGTCCCAGCTACGCGATTGACAGCGTAGAATGAAGG
DNA 2: CCTTCATTCTACGCTGTCAATCGCGTAGCTGGGACTGCAGGTGCCCACGACCACACCCGC
B9: NRC3_wobSeed120_DR4_T13C_o1 (dsDNA)
DNA 1: GCCCGAGTAGGTCACGAGGGGGCATTCAGTGCGAATGCGATTGACAGCGTAGAATGAAGG
DNA 2: CCTTCATTCTACGCTGTCAATCGCATTCGCACTGAATGCCCCCTCGTGACCTACTCGGGC
B10: NRC3_wobSeed93_DR3_A22C_o1 (dsDNA)
DNA 1: GCAGTCAAAGTTCATCTAGGTCACGTAAGATATGCTGCGATTGACAGCGTAGAATGAAGG
DNA 2: CCTTCATTCTACGCTGTCAATCGCAGCATATCTTACGTGACCTAGATGAACTTTGACTGC
B11: NRC3_random_hg19_491_o1 (dsDNA)
DNA 1: GCCGCCTTTAGATTGCAGGCTCCTGGAGAGCTGTCTGCGATTGACAGCGTAGAATGAAGG
DNA 2: CCTTCATTCTACGCTGTCAATCGCAGACAGCTCTCCAGGAGCCTGCAATCTAAAGGCGGC
B12: NRC3_wobSeed53_DR2_A17T_o1 (dsDNA)
DNA 1: GCCCTTACGGGTCACGTGGTTATAGCACGACGAGCGGCGATTGACAGCGTAGAATGAAGG
DNA 2: CCTTCATTCTACGCTGTCAATCGCCGCTCGTCGTGCTATAACCACGTGACCCGTAAGGGC

Assays:
LXRa:RXRa = LXRa:RXRa (Homo sapiens, UniProt Q13133;P19793 full;full); assay: no ligand; PBM; 270 nM : 90 nM RXRa; PBS pH 7.4, 2% milk, 0.02% Triton X-100, 1 mM DTT, BSA, 0.4 mg/ml salmon testes DNA; conditions: tags: His kept;His cleaved; copies: 1;1; label: surface-attached array probe
Procedure, shortened: (§1)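 The probes on custom Agilent 4×180K protein-binding microarrays were double-stranded, with 34-nt variable regions bearing direct-repeat seeds, single-nucleotide variants, half-site ablations and random human genomic background sequences. Incubation lasted 1 h with ligand-free nuclear receptor dimers in PBS pH 7.4, 2% milk, 0.02% Triton X-100, 1 mM DTT, 0.2 mg/mL BSA and 0.4 mg/ml salmon testes DNA. Antibodies against each partner (one per run) detected bound dimers, and fluorescence scans were regression-normalized. Binding z-scores take the random background probes as reference.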

PXR:RXRa = PXR:RXRa (Homo sapiens, UniProt O75469;P19793 full;full); assay: as above; conditions: tags: His kept;His cleaved; copies: 1;1; label: surface-attached array probe
Procedure, shortened: as §1

VDR:RXRa = VDR:RXRa (Homo sapiens, UniProt P11473;P19793 full;full); assay: as above; conditions: tags: His kept;His cleaved; copies: 1;1; label: surface-attached array probe
Procedure, shortened: as §1

LXRb:RXRa = LXRb:RXRa (Homo sapiens, UniProt P55055;P19793 full;full); assay: as above; conditions: tags: His kept;His cleaved; copies: 1;1; label: surface-attached array probe
Procedure, shortened: as §1

RXRa = RXRa (Homo sapiens, UniProt P19793); assay: no ligand; PBM; 180 nM; PBS pH 7.4, 2% milk, 0.02% Triton X-100, 1 mM DTT, BSA, 0.4 mg/ml salmon testes DNA; conditions: tags: His cleaved; chain copies: 2; label: surface-attached array probe
RARb:RXRa = RARb:RXRa (Homo sapiens, UniProt P10826;P19793 full;full); assay: no ligand; PBM; 270 nM : 90 nM RXRa; PBS pH 7.4, 2% milk, 0.02% Triton X-100, 1 mM DTT, BSA, 0.4 mg/ml salmon testes DNA; conditions: tags: His kept;His cleaved; copies: 1;1; label: surface-attached array probe
Procedure, shortened: as §1

FXR:RXRa = FXR:RXRa (Homo sapiens, UniProt Q96RI1;P19793 full;full); assay: as above; conditions: tags: His kept;His cleaved; copies: 1;1; label: surface-attached array probe
Procedure, shortened: as §1

RARg:RXRa = RARg:RXRa (Homo sapiens, UniProt P13631;P19793 full;full); assay: as above; conditions: tags: His kept;His cleaved; copies: 1;1; label: surface-attached array probe
Procedure, shortened: as §1

PXR:RXRa, sequence (O75469 whole entry, chain 1 of 2): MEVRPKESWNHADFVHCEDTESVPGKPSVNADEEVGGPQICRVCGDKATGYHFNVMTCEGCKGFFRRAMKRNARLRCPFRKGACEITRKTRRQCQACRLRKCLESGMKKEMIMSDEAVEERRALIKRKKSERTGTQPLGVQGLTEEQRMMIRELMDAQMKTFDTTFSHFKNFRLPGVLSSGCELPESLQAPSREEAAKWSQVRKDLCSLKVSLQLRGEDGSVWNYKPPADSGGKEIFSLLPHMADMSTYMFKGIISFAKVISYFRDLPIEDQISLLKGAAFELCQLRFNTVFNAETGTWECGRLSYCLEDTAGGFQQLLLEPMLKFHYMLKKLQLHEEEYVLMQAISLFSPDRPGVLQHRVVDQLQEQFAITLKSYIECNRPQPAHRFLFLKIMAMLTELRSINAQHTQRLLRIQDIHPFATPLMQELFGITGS
PXR:RXRa, sequence (P19793 whole entry, chain 2 of 2): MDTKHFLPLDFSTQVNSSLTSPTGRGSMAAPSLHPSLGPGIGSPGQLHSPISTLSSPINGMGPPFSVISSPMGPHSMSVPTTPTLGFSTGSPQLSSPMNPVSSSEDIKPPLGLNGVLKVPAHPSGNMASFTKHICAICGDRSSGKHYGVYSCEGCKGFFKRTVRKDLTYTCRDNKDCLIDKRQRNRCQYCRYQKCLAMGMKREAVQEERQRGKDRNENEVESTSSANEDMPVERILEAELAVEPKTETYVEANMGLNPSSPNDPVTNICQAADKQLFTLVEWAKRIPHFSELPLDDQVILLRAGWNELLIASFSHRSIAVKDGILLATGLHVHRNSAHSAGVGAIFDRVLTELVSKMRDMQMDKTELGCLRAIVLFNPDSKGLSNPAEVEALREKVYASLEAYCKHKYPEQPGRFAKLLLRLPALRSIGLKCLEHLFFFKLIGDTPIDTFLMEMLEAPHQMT
RARb:RXRa, sequence (P10826 whole entry, chain 1 of 2): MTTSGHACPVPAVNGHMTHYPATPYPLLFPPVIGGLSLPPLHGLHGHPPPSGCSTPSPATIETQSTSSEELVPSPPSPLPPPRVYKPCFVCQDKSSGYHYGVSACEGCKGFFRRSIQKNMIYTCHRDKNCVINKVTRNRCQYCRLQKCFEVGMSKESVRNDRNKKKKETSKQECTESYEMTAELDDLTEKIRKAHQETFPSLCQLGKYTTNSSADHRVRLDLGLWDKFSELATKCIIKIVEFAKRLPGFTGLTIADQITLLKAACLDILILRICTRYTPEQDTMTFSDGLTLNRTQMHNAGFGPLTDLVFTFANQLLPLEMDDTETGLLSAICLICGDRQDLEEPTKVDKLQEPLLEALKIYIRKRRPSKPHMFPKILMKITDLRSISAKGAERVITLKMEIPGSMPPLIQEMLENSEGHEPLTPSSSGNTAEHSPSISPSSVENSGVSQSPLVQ
RARb:RXRa, sequence (P19793 whole entry, chain 2 of 2): as the sequence (P19793 whole entry, chain 2 of 2) above
RARg:RXRa, sequence (P13631 whole entry, chain 1 of 2): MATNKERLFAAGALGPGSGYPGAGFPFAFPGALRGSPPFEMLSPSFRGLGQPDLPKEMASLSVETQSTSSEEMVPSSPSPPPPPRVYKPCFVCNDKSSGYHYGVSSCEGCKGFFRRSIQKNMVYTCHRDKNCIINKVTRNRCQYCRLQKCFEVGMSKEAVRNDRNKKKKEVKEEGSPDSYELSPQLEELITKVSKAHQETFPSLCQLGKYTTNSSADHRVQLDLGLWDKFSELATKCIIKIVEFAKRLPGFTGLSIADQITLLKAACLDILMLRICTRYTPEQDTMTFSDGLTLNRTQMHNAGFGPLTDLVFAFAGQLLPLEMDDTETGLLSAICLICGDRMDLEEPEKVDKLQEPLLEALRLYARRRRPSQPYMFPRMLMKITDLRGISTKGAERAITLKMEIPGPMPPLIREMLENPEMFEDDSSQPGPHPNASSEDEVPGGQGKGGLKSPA
RARg:RXRa, sequence (P19793 whole entry, chain 2 of 2): as the sequence (P19793 whole entry, chain 2 of 2) above
LXRa:RXRa, sequence (Q13133 whole entry, chain 1 of 2): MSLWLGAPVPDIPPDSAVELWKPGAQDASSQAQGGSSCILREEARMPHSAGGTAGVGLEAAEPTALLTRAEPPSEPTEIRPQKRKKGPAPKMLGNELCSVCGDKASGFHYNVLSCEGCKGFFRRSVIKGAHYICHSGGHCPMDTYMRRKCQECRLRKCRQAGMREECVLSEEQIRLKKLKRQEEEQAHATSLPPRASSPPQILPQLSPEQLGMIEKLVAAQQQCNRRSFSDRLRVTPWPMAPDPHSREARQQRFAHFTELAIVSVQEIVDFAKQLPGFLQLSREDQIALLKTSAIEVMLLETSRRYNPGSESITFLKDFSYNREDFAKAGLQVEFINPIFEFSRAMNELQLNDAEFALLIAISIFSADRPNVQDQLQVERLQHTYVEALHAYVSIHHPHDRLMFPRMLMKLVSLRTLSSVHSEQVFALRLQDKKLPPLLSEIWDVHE
LXRa:RXRa, sequence (P19793 whole entry, chain 2 of 2): as the sequence (P19793 whole entry, chain 2 of 2) above
VDR:RXRa, sequence (P11473 whole entry, chain 1 of 2): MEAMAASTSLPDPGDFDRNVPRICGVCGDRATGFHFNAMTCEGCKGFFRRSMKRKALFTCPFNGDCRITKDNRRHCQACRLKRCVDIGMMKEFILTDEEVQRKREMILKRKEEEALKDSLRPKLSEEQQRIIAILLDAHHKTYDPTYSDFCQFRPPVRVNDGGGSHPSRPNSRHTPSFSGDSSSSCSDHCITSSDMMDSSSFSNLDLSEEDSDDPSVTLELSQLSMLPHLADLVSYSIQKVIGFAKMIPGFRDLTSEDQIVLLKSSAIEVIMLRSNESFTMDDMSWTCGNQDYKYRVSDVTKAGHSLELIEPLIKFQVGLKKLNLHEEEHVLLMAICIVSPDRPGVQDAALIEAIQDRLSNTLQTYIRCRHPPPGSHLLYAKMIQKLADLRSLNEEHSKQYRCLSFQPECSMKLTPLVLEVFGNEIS
VDR:RXRa, sequence (P19793 whole entry, chain 2 of 2): as the sequence (P19793 whole entry, chain 2 of 2) above
FXR:RXRa, sequence (Q96RI1 whole entry, chain 1 of 2): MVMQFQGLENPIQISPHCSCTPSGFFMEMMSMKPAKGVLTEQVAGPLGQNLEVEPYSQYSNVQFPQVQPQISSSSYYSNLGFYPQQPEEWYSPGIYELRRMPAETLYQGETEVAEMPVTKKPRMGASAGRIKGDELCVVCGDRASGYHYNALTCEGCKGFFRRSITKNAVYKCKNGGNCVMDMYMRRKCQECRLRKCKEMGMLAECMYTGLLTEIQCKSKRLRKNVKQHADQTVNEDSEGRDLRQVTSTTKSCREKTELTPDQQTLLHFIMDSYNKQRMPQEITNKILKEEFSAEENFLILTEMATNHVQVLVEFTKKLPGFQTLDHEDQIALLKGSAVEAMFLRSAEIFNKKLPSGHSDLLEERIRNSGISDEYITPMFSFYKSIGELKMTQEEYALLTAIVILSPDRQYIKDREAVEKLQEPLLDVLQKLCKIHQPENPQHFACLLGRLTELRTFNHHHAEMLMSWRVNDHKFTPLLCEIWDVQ
FXR:RXRa, sequence (P19793 whole entry, chain 2 of 2): as the sequence (P19793 whole entry, chain 2 of 2) above
RXRa, sequence (P19793 whole entry): as the sequence (P19793 whole entry, chain 2 of 2) above
LXRb:RXRa, sequence (P55055 whole entry, chain 1 of 2): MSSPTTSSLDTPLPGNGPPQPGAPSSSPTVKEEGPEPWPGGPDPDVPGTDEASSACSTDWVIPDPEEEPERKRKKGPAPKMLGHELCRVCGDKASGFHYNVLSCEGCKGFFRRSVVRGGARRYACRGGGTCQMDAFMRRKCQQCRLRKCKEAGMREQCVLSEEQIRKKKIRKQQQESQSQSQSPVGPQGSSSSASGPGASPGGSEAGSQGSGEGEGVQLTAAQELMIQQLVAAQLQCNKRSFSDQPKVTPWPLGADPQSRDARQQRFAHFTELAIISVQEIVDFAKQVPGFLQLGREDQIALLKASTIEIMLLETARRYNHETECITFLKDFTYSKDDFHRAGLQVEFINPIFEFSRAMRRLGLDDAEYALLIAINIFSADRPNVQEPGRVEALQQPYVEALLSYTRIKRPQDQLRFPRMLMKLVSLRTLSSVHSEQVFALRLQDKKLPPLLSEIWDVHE
LXRb:RXRa, sequence (P19793 whole entry, chain 2 of 2): as the sequence (P19793 whole entry, chain 2 of 2) above

Binder | binding signal (LXRa:RXRa) | binding signal (PXR:RXRa) | binding signal (VDR:RXRa) | binding signal (LXRb:RXRa) | binding signal (RXRa) | binding signal (RARb:RXRa) | binding signal (FXR:RXRa) | binding signal (RARg:RXRa)
B1 | 0.41 PBM z-score against 500 random probes | 0.4 PBM z-score against 500 random probes |  |  |  |  |  | 
B2 |  | -0.14 PBM z-score against 500 random probes | 0.37 PBM z-score against 500 random probes | 0.07 PBM z-score against 500 random probes |  |  |  | 
B3 |  | 6.45 PBM z-score against 500 random probes | 6.66 PBM z-score against 500 random probes |  | 8.4 PBM z-score against 500 random probes | 5.54 PBM z-score against 500 random probes | 8.27 PBM z-score against 500 random probes | 7.45 PBM z-score against 500 random probes
B4 |  | 6.46 PBM z-score against 500 random probes | 7.51 PBM z-score against 500 random probes |  | 8.41 PBM z-score against 500 random probes | 5.84 PBM z-score against 500 random probes |  | 7.62 PBM z-score against 500 random probes
B5 |  | 3.15 PBM z-score against 500 random probes | 3.23 PBM z-score against 500 random probes |  |  |  |  | 
B6 | -0.44 PBM z-score against 500 random probes | -0.52 PBM z-score against 500 random probes |  |  |  |  |  | 
B7 |  | 6.69 PBM z-score against 500 random probes | 6.76 PBM z-score against 500 random probes |  |  |  | 7.77 PBM z-score against 500 random probes | 
B8 |  | -0.37 PBM z-score against 500 random probes |  | 0.06 PBM z-score against 500 random probes |  |  |  | -0.64 PBM z-score against 500 random probes
B9 |  | 6.39 PBM z-score against 500 random probes | 7.01 PBM z-score against 500 random probes |  |  |  |  | 
B10 | 6.64 PBM z-score against 500 random probes | 7.03 PBM z-score against 500 random probes | 7.14 PBM z-score against 500 random probes |  |  | 5.57 PBM z-score against 500 random probes |  | 
B11 | -0.82 PBM z-score against 500 random probes | -1.27 PBM z-score against 500 random probes |  |  |  |  |  | 
B12 | 3.8 PBM z-score against 500 random probes | 3.42 PBM z-score against 500 random probes |  |  |  |  |  | 
